# Measurements as given in the supplement of paper PMC7877785.
# ± gives the uncertainty stated by the source.
# Assay: self-splicing fitness, log relative to wild type (ln ratio); higher = more splicing; Tetrahymena group I intron in knt gene, E. coli kanamycin selection, DiMSum; sequences stand for … in CUCUCU…GGAGGGAAAAGUUAUCAGGCAUGCACCUGGUAGCUAGUCUUUAAACCAAUAGAUUGCAUCGGUUUAAAAGGCAAGACCGUCAAAUUGCGGGAAAGGGGUCAACAGCCGUUCAGUACCAAGUCUCAGGGGAAACUUUGAGAUGGCCUUGCAAAGGGUAUGGUAAUAAGCUGACGGACAUGGUCCUAACCACGCAGCCAAGUCCUAAGUCAACAGAUCUUCUGUUGAUAUGGAUGCAGUUCACAGACUAAAUGUCGGUCGGGGAAGAUGUAUUCUUCUCAUAAGAUAUAGUCGGACCUCUCCUUAAUGGGAGCUAGCGGAUGAAGUGAUGCAACACUGGAGCCGCUGGGAACUAAUUUGUAUGCGAAAGUAUAUUGAUUAGUUUUGGAGUACUCGUGGUCG
# Summary of the method: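 Library with all eight P1ex-region intron nucleotides randomised, intron inside the knt kanamycin-resistance gene on pET-22b(+), in E. coli BL21(DE3). Cells grew overnight at 37°C or 30°C on LB agar with or without 25 μg/mL kanamycin (plus 100 μg/mL carbenicillin, 50 μM IPTG, 0.2% rhamnose), in six replicate transformations. Pooled colonies were amplicon-sequenced on Illumina HiSeq 2500. DiMSum fitness is the error-weighted combination of wild-type-normalised replicate fold changes, kanamycin versus none.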
Sequence,self-splicing fitness (ln) (30 °C),self-splicing fitness (ln) (37 °C)
ACGAAGCAAUAUUACGCCAC,-3.08 ± 0.19,-2.56 ± 0.28
AGUCAGCAAUAUUACGUCUG,-2.2 ± 0.13,-0.783 ± 0.12
UACUAGCAAUAUUACGAACU,-1.14 ± 0.21,-1.51 ± 0.25
AGGCAGCAAUAUUACGCAGA,-1.37 ± 0.12,-0.754 ± 0.11
UGAGAGCAAUAUUACGACGC,-1.61 ± 0.35,
ACCUAGCAAUAUUACGCGUG,-0.901 ± 0.077,-0.11 ± 0.1
ACCUAGCAAUAUUACGUCUA,-2.44 ± 0.21,-2.04 ± 0.25
UCCCAGCAAUAUUACGACUC,-3.89 ± 0.25,-1.91 ± 0.24
GCUGAGCAAUAUUACGUGCU,-3.42 ± 0.12,-3.39 ± 0.2
ACUUAGCAAUAUUACGGGAA,-1.99 ± 0.2,-1.65 ± 0.16
UAGUAGCAAUAUUACGACGC,-3.61 ± 0.25,-0.996 ± 0.21
AGUUAGCAAUAUUACGUUUG,-3.13 ± 0.24,-1.8 ± 0.29
UCCCAGCAAUAUUACGGGAC,-2.69 ± 0.17,-2.49 ± 0.3
CCCUAGCAAUAUUACGCCGC,-3.7 ± 0.25,-1.96 ± 0.27
CGGCAGCAAUAUUACGUAAC,-1.24 ± 0.21,
ACGAAGCAAUAUUACGAUAC,-3.68 ± 0.2,-2.2 ± 0.22
GGGAAGCAAUAUUACGUCUU,-0.577 ± 0.09,-0.159 ± 0.13
AUCGAGCAAUAUUACGGUAU,-2.46 ± 0.13,-1.12 ± 0.11
CGUUAGCAAUAUUACGCAUU,-4.27 ± 0.25,-1.29 ± 0.12
UCGUAGCAAUAUUACGAAGA,-3.36 ± 0.5,
UUGGAGCAAUAUUACGGUAA,-1.27 ± 0.26,-1.01 ± 0.27
GCCCAGCAAUAUUACGACAG,-3.6 ± 0.19,-1.78 ± 0.14
AACAAGCAAUAUUACGGGAG,-2.51 ± 0.093,-1.96 ± 0.1
GCAGAGCAAUAUUACGGUUA,-2.95 ± 0.17,-2.17 ± 0.16
UCACAGCAAUAUUACGCGUA,-1.09 ± 0.086,-0.297 ± 0.082

Sequence,self-splicing fitness (ln) (30 °C),self-splicing fitness (ln) (37 °C)
UAUAAGCAAUAUUACGUCUU,-1 ± 0.085,-0.554 ± 0.1
AGGCAGCAAUAUUACGGCAC,-0.991 ± 0.085,-0.533 ± 0.13
GCAUAGCAAUAUUACGCUGU,-3.06 ± 0.17,-1.69 ± 0.23
GGGCAGCAAUAUUACGGUCU,-3.22 ± 0.26,-1.03 ± 0.24
AUGUAGCAAUAUUACGCUCC,-0.373 ± 0.28,-0.973 ± 0.45
CGGAAGCAAUAUUACGGUAA,-3.11 ± 0.23,-2.23 ± 0.24
AACGAGCAAUAUUACGCGCG,-1.81 ± 0.28,-1.75 ± 0.28
UCGCAGCAAUAUUACGUCGG,-2.74 ± 0.18,-1.79 ± 0.19
CACAAGCAAUAUUACGCGAC,-2.93 ± 0.15,-3.22 ± 0.27
ACGAAGCAAUAUUACGGGUG,-1.74 ± 0.069,-1.36 ± 0.083
GGGCAGCAAUAUUACGAUCC,-1.89 ± 0.42,-0.374 ± 0.37
CUGCAGCAAUAUUACGUGCU,-4.44 ± 0.23,-2.54 ± 0.19
AAUCAGCAAUAUUACGCAUU,-1.1 ± 0.072,-0.498 ± 0.086
GUUCAGCAAUAUUACGUCCG,0.0188 ± 0.43,
AAGUAGCAAUAUUACGCCUU,-1.39 ± 0.12,-1.01 ± 0.19
CCGAAGCAAUAUUACGUAGG,-3.15 ± 0.17,-2.65 ± 0.23
AAUGAGCAAUAUUACGACAA,-3.01 ± 0.27,-1.93 ± 0.25
CGGUAGCAAUAUUACGUUGU,-4.62 ± 0.27,-2.55 ± 0.15
UAUAAGCAAUAUUACGCUCG,-0.59 ± 0.082,-0.442 ± 0.11
GGAGAGCAAUAUUACGACGG,-2.35 ± 0.29,-2.17 ± 0.36
CUCGAGCAAUAUUACGCGGG,-3.9 ± 0.39,
ACUUAGCAAUAUUACGCUUG,-1.7 ± 0.094,-0.865 ± 0.12
AGCGAGCAAUAUUACGUAAU,-3.21 ± 0.14,-2.04 ± 0.14
GCGCAGCAAUAUUACGGUCG,-2.26 ± 0.23,-1.81 ± 0.22
